Experimental data as given in article PMC9677509 (Biochemistry, 2017).
Positions count from the first letter of the chain named. Numbers in names are those of the source. Blank lines part the entries; values can stand above or below the molecule they belong to.

Legend:
[1] = molecular target: temperature sensitive HARS with the R362H substitution (UniProt P12081); experiment: AUC
[2] = molecular target: the molecule itself; experiment: AUC

- stoichiometry N [1]: 2
Molecule: temperature sensitive HARS with the R362H substitution (from UniProt P12081 1-509) (enzyme)

B1: human FLAG-tagged wild type histidyl-tRNA synthetase (HARS) (enzyme, UniProt P12081 1-509, looked up)
chain: MAERAALEELVKLQGERVRGLKQQKASAELIEEEVAKLLKLKAQLGPDESKQKFVLKTPKGTRDYSPRQMAVREKVFDVIIRCFKRHGAEVIDTPVFELKETLMGKYGEDSKLIYDLKDQGGELLSLRYDLTVPFARYLAMNKLTNIKRYHIAKVYRRDNPAMTRGRYREFYQCDFDIAGNFDPMIPDAECLKIMCEILSSLQIGDFLVKVNDRRILDGMFAICGVSDSKFRTICSSVDKLDKVSWEEVKNEMVGEKGLAPEVADRIGDYVQQHGGVSLVEQLLQDPKLSQNKQALEGLGDLKLLFEYLTLFGIDDKISFDLSLARGLDYYTGVIYEAVLLQTPAQAGEEPLGVGSVAAGGRYDGLVGMFDPKGRKVPCVGLSIGVERIFSIVEQRLEALEEKIRTTETQVLVASAQKKLLEERLKLVSELWDAGIKAELLYKKNPKLLNQLQYCEEAGIPLVAIIGEQELKDGVIKLRSVTSREEVDVRREDLVEEIKRRTGQPLCIC
- stoichiometry N [2]: 2

B2: human FLAG-tagged Y454S histidyl-tRNA synthetase (HARS) (enzyme, UniProt P12081 1-509, looked up)
chain: B1 chain with Y454S
- stoichiometry N [2]: 2
